Results reported in patent publication US20120039802A1 (published 2012).

What was measured:
[1] = biological target: T1, cMet-Fc fusion protein (extracellular domain of the cMet receptor expressed as an Fc-fusion protein) (human, UniProt P08581 25-932); assay: phage ELISA, cMet-Fc vs TRAIL-Fc
T1 construct: extracellular domain; also called soluble cMet-Fc-fusion protein; soluble cMet receptor; not shown: Fc part
Method: Protein phage ELISAs using peptide-displaying phage isolates from the various selection campaigns were performed to determine specificity of the peptides for cMet versus an unrelated Fc-fusion protein (TRAIL-Fe). Briefly, 384-well plates were coated overnight at 4 C with 0.5 μg/mL of cMet-Fc fusion protein or TRAIL-Fc fusion protein (background). The plates were blocked for 2 hours 37 C with 3% (w/v) BSA in PBS containing 0.05% (v/v) Tween-20 (PBST). The plates were washed with PBST and 100 μL of peptide-displaying phage were added to each well. The plates were incubated for 2 hours at room temperature and washed with PBST. cMet-binding peptide-displaying phage were detected using an HRP-conjugated anti-M13 antibody.

[2] = biological target: T2, human cMet expressed on 3T3 cells (human, UniProt P08581 25-1390); assay: whole cell phage ELISA, 3T3 human cMet vs 3T3
T2 construct: whole, on cells; cells fixed with glutaraldehyde; also called cell surface-expressed human cMet; 3T3 cells that over-express human cMet
Method: Whole cell ELISAs were performed using 3T3 cells that over-express human cMet. […] Briefly, 96-well plates were seeded with 10⁵ cells per well. The plates were centrifuged for 5 minutes at 1600 rpm to pellet the cells. The resulting cell layer was fixed with 0.1% (v/v) glutaraldehyde for 12 minutes at 37 C. […] Peptide-displaying phage also were blocked in the above solution for 1 hour at 37 C. 100 μL of blocked phage was then added to each well and the plates were incubated for 1 hour at room temperature. The plates were washed with PBST. cMet-binding peptide-displaying phage were detected using an HRP-conjugated anti-M13 antibody.

[3] = biological target: T1, cMet-Fc fusion protein (extracellular …); assay: phage ELISA on cMet-Fc, competitor HGF 100 ng/mL
Method: (§1) These assays were conducted using the peptide-displaying phage discovered from the initial selection and screening campaigns using the first generation peptide libraries. Briefly, 96-well plates were coated overnight at 4 C with 0.5 μg/mL of cMet-Fc fusion protein or TRAIL-Fc fusion protein (background). The plates were blocked for 2 hours at 37 C with 3% BSA in PBST. […] This was followed by an addition of 30 μL of peptide-displaying phage overnight culture to each well. The plates were incubated for 2 hours at room temperature, washed with PBST and cMet-binding peptide-displaying phage was detected using an HRP-conjugated anti-M13 antibody.

[4] = biological target: T1, cMet-Fc fusion protein (extracellular …); assay: phage ELISA on cMet-Fc, competitor HGF 500 ng/mL
Method: as §1

T1 sequence (P08581 25-932): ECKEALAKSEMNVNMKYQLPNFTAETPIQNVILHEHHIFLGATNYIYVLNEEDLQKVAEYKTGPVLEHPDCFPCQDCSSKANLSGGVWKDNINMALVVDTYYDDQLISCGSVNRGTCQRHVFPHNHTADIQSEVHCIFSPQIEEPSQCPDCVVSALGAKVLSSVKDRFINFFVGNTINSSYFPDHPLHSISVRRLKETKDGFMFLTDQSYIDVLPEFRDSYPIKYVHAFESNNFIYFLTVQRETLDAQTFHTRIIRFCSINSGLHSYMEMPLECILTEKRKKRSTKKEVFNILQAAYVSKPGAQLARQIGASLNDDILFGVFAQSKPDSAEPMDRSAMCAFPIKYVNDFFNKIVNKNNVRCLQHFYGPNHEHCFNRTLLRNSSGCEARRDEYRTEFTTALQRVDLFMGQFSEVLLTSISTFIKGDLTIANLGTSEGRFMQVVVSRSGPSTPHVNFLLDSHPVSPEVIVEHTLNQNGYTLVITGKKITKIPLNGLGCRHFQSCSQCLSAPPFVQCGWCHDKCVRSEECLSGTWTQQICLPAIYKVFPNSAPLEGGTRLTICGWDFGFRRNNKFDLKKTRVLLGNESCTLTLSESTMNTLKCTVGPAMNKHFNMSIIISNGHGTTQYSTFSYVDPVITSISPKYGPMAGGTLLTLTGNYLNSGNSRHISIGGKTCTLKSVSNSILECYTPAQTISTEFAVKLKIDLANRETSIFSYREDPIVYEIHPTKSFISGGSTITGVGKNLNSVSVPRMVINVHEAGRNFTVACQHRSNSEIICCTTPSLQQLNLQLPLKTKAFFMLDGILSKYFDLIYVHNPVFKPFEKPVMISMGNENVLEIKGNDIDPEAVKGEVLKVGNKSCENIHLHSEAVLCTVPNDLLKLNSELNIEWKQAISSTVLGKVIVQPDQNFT
T2 sequence (P08581 25-1390): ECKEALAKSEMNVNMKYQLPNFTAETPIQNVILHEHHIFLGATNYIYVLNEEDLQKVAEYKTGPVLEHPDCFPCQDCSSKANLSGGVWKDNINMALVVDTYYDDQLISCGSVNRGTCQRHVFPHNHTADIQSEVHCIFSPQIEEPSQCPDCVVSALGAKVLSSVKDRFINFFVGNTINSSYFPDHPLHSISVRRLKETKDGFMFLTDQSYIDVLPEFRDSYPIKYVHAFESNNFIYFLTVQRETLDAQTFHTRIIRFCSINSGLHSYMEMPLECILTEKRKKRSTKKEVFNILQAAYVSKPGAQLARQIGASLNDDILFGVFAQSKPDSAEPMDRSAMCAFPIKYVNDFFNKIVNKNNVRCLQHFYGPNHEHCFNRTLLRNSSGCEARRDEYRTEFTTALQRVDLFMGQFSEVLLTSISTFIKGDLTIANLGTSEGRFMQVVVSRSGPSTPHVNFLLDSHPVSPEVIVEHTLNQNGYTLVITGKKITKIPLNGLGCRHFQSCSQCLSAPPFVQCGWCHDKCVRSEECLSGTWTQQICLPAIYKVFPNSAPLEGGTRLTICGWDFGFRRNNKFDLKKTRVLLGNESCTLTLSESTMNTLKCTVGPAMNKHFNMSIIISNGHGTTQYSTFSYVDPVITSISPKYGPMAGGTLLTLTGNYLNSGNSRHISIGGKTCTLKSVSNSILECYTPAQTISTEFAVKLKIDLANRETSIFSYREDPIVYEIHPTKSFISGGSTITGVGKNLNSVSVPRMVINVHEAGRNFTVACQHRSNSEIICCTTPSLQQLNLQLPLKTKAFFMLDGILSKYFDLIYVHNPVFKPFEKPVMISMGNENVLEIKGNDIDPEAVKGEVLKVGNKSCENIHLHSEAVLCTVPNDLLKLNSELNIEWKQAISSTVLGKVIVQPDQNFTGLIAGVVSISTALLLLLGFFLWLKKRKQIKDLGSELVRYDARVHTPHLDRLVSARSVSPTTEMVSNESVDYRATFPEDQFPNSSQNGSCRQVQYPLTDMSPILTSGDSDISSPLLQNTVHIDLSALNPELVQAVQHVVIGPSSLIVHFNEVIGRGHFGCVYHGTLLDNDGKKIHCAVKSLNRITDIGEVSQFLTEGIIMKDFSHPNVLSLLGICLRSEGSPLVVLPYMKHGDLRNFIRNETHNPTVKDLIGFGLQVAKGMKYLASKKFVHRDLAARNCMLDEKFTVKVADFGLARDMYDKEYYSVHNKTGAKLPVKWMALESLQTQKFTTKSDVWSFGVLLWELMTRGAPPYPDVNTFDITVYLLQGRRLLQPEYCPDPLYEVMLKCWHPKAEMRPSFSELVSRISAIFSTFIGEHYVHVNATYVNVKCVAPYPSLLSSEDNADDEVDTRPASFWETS

Binder | Protein ELISA (fold over background) [1] [fold] | WC ELISA (fold over background) [2] [fold] | % of binding in the absence of HGF [3] [%] | % of binding in the absence of HGF [4] [%]
AGDWHCQGPPAFMCWMIGT [330-C01 peptide-displaying phage (SEQ ID NO: 065)] | 4.7 | 1.3 | 58 | 43
AGETTCLGWPTFVCVDYGT [548-E08 peptide-displaying phage (SEQ ID NO: 063)] | 5.3 | 1.27 | 102 | 50
AGYTSCVGPPSFECTPYGT [323-A11 peptide-displaying phage (SEQ ID NO: 059)] | 21.2 | 1.43 | 41 | 18
AGDIVCTGHPYFECWSWGT [333-C05 peptide-displaying phage (SEQ ID NO: 068)] | 6.3 | 1.33 | 83 | 66
AGQFKCAGPPSFACWMTGT [333-F09 peptide-displaying phage (SEQ ID NO: 050)] | 14.8 | 1.43 | 52 | 32
AGSFACKGPPTFACVEFGT [330-B07 peptide-displaying phage (SEQ ID NO: 053)] | 18.1 | 1.27 | 58 | 40
AGWFQCKGPPSFECERHGT [336-G04 peptide-displaying phage (SEQ ID NO: 051)] | 5.4 | 1.33 | 46 | 23
AGHAWCSGPPRFECWPPGT [329-D02 peptide-displaying phage (SEQ ID NO: 061)] | 3.2 | 1.27 | 53 | 31
GDGFLCRWENGWCEFWDP [545-E08 peptide-displaying phage (SEQ ID NO: 047)] | 4.7 | 1.3 | 81 | 57
AGFVNCKGPPTFECILTGT [538-F08 peptide-displaying phage (SEQ ID NO: 057)] | 12.3 | 1.23 | 55 | 43
GSWIICWWDNCGSSAP [571-C05 peptide-displaying phage (SEQ ID NO: 001)] | 4.9 | 1.3 | 102 | 74
AGYFECKGPPTFECWLSGT [333-H03 peptide-displaying phage (SEQ ID NO: 060)] | 8.1 | 1.43 | 55 | 37
AGSWECTGPPSFHCQWYGT [551-G12 peptide-displaying phage (SEQ ID NO: 070)] | 3.9 | 1.37 | 88 | 46
AGSIQCKGPPWFSCAMYGT [325-H05 peptide-displaying phage (SEQ ID NO: 048)] | 15.9 | 1.47 | 41 | 32
GSEYSCRTSRCIFSAP [452-F01 peptide-displaying phage (SEQ ID NO: 006)] | 3.2 | 1.33 | 117 | 110
AGTWHCAGPPWFTCYMDGT [551-B02 peptide-displaying phage (SEQ ID NO: 069)] | 9 | 1.3 | 69 | 43
AGSWHCAGPPSFECWEFGT [331-G04 peptide-displaying phage (SEQ ID NO: 055)] | 18.3 | 1.47 | 56 | 36
AGHYWCAGPPTFICMGPGT [550-C09 peptide-displaying phage (SEQ ID NO: 062)] | 10.2 | 1.4 | 25 | 25
AGWTHCIGPPTFECIPMGT [334-G06 peptide-displaying phage (SEQ ID NO: 052)] | 8 | 1.3 | 56 | 43
AGLPKCSGPPWFSCYYGGT [545-A09 peptide-displaying phage (SEQ ID NO: 066)] | 13.5 | 1.3 | 44 | 22
AGDWICHGPPMFECEWVGT [547-H07 peptide-displaying phage (SEQ ID NO: 058)] | 15.9 | 1.17 | 60 | 45
AGGWECTGPPWFQCGYYGT [334-C08 peptide-displaying phage (SEQ ID NO: 067)] | 8 | 1.47 | 70 | 57
AGWISCAGPPTFACWPGGT [548-F06 peptide-displaying phage (SEQ ID NO: 056)] | 14.3 | 1.23 | 76 | 18
AGHGTCRGWPTFECIYFGT [332-A05 peptide-displaying phage (SEQ ID NO: 064)] | 6 | 1.4 | 40 | 21
AGYYGCKGPPTFECQWMGT [330-F05 peptide-displaying phage (SEQ ID NO: 049)] | 13.8 | 1.33 | 51 | 27
GSFILCWWTFCDTNAP [569-C03 peptide-displaying phage (SEQ ID NO: 007)] | 3.4 | 1.3 | 95 | 89
AGNYFCAGSPSFSCYFMGT [330-C10 peptide-displaying phage (SEQ ID NO: 054)] | 13.4 | 1.33 | 48 | 25
